Reference: the PETadex activity labels

B1: unnamed (protein)
chain: MRTRGTRPLRRLAAIFLLALVIAACDTKGPDPTEQILTASSGPFGVATLAVPSSAGFGGGTIYYPTGVEGPFAVISVTPGFTETAASLDWGPRLASHGFVAIVINTSNIFEDPTTRSNEQRQALTYAAAQSDSASSPIHGLVDGNRRGVTGHSMGGGGTLISAQADPAIRAAVPLAPWNGSPTFSGITVPTLFIACQNDVIAPVANHASPMYNSIPASTHKSYLSIAGGDHFCANAASGGSGQVGKFVVAFFKRFLDGDTRYDPWVCGASKPAVTSVINEVRSTCPF
B2: unnamed (protein)
chain: MNKSILEKMVVGTSALLFSLSAFSFTPDPTPDPDPEPEPCQGECDFTRGPAPTSSYLEASSGPYSVDTVGVSRSVSGFGGGTIYYPTSTSGTMGAIAIVPGFLAGESSISWWGPRLASHGFVVITIATNSTFDQPASRSTQLSRALDYVVSQSNSNSSPISGKVDSTRLGAMGWSMGGGGALRLASGNRLAAAIPLAPWNTGSNSFNQIDTPTLIFACENDTTARVGTHASPFYNRIPASTDKAYLEINNGSHSCANGGGSNGGLLGKYGVSWMKRFIDEDTRYSQFLCGPNHEANSAISEYRETCNY
B3: unnamed (protein)
chain: MNALSWTPSPTPNPDPTPDPTPCQGDCDFTRGPNPTLSSVATMGPYSVSTQSVSSSVSGFGGGTIHFPTNTAGTMGAIAVAPGFLSPESSIKWWGPRLASHGFVVITIATNSVFDQPNSRETQISRALDYVINQSNSSNSAISGMVDNTRVGAMGWSMGGGGALRLASGDRLSAAIPLAPWHQGSNSFNQLETPTLIIACENDVVAPVNNHASPFYNAIPSTTDKALLEINNGAHSCANGGGTNGGLLTKYGVSWMKRFIDNDLRYDQFLCGPDHAANNAVSEYRGTCNY
B4: unnamed (protein)
chain: MKTIERGQRRCAVGLGLLLLAAAAHAQTNPLAKGPDPTSALLNANAGPFAIASTAVPSSVAGFGGGTVYYPTAAGSYATVAICPGFTATQSSIAWIGQRMASHGFVAMTINTNSTFDQPPSRATQLMAALRYLTNSSNSTVRARVDASRLGVAGHSMGGGGTLMAARDNTTLKAAVPLTPWSQTKSFSTVRVPTLVVGAENDTVAPVAQHSIPFYTSLPASLDKAYAELNNASHFAPNSTNTAIGRYSVAWVKRFMDNDTRYEPFLCGAPHTAFATPTVFSDYRSTCPYQ
B5: unnamed (protein)
chain: MEMFVVPKINITFNEVAVMPSSIPVKILTGVCSLLFSVSAFSFTPSPDPDPDPGPGPCQEDCDFTRGPNPTSNYLEASSGPYNVSTIGVSRSVSGFGGGTVHYPQGTTGTMGAIAIVPGFLAGESSIAWWGPRLASHGFVVITIATNSTFDQPGSRSTQLGRALDYVINLSNSSSSPISGMVDSTRVAAMGWSMGGGGTLRLASGGRLSAAIPLAPWNTGSNSFNQITTPTLILACENDSTAPVSVHASPFYNRIPSSTDKAYLEINNGSHSCANGGGANGGLLGKYGVSWMKRFIDDDARYSQFLCGPNHQANSAISEYRDTCNY
B6: unnamed (protein)
chain: MKTTVSRIKGLSVAAAMALASLATPALSQTSAPTSASLNATSGPLSVSTASVLLPVGFGGGTIYYPTVAGKYGVIAISPGFTATQSSIAWLGRRIATHGFVVITMNTITTLDQPDSRATQLMAALRYVLNSSGTAVRARIDSTRLAVAGHSMGGGGSLIAARDNPTLKASYPMTPWNLSTNFSTVRVPTMIIGADGDTIAPVAVHARPFYASLPSSTYKAYGELNNGTHFSPNSTNTPIGRYAVAWMKRFVDGDTRYSPFLCGAEHAAYATGWVFDRYNQNCPY
B7: unnamed (protein)
chain: MKIKNRTACTTAAPSPARRRLAMASLAAAGLLCSFTAQAQVAVFQENFTSGLGSFTAAGSATNSSGAARLAGCYGCTDGAITSGPISTVGFSSLSLSFDRVTSGLDIGEGGIAEYSTNGSTWTALETTRATSNGRVTFNLPAAAAGQTGLRLRFRIDANLSSETYTVDNIQLTGISGDGGGTNPHAKGPAPTASLLEASTGPFTYASTNVSSLSADGYGGATIFHPTNVAGPFAAIAISPGYTGTKSTMTWWGERLASHGFVVAVIDTNSIYDQPYQRAPQLMAALRQLVTFSNTSSHPIYRKVDPNRLGVMGHSMGGGGTLIAARDNPTLKAAIPLAPWNTSTNFSSVSVPTLVVACESDSIAPVNSHASPFYNSLPSSTRKAFMEMNNGDHFCVMNGNDFTRIMGKYGVAWMKRFLDNDTRYSPFLCGAQHQADLSNSQLSEYRENCPY
B8: unnamed (protein)
chain: MHQGIHMERKNIRRRWAIGLLGMLVLAASAHAQTNPHQKGPDPTSASLNATSGSFSVATSSVSSLGAVGFGGGTVYYPTTTGTYAVLAICPGFTATQSSIAWLGRRIATHGFVVITIDTNSTLDQPPSRATQLMAALNYVTNSSSATVRSRVDASRRGVAGHSMGGGGTLYAARDNPSLKAAVPLTAWSTLKSFSSVQVPTLVVGAESDSIASVSSHSIPFYNSLSTSLDKAYAELNGATHFAPNSTNTPIGRYSVSWVKRFMDNDTRYTPFLCGAPHQSYATSLVFSDYRSTCPY
B9: unnamed (protein)
chain: MKHDRRYRWGRLAGLAALLLAPVAAQAQTVLFSEDFEGGLGAFSAGGNVFTATVFNGTSGVRLRGGSSDGVITSPPISTEGFSEVTLFFERTTDGSLDFGEFGIAEVSVDGGATFAVVEATQGGPAAVSIPLGAAAADQAAVVLRFRIAASSFFEDIEVDNVVLEGVGSGDPGPGPDPDPGPDPDPDPDPEPEPDNPFARGPDPTEATLEASSGPFAVDSFRPSSTPGFGAGTIWYPSGTNEGPFAAIAVAPGFVGGESTIDWLGSRLASHGFVVITISTSSLFDFPDSRASQLLAALDIVIAESNGSSPISGLVDPDRTGLSGHSMGGGGSLIATEDHPSIDAVVPLAPWNPSTNFSAIDQPTLIVACENDTVAPVNQHASPMYESISSSVDKAFLEIDGADHFCVNSGNAQQDTLGKFIVSWMKRFLDQDTRYDPFLCGPDHEADPDISEFRDTCPF
B10: unnamed (protein)
chain: MVRGVRAALRLASLVAVAVLPACGSGGGSSPTPASTPMATPIAPTPAPTLAPAPPTSPPFTRGPAPSTSALEATEGPFAVAQLTIDRTAAAGYGAGTVSYPTDTREGPFGAIAVSPGYTGVQRSMQWFGPRLASHGFVVIVIDTLSLTNNAEARAAQLIAALNQLIALSGTSGHPLQGKVDGNRLGVIGHSYGGGGALVAARDNPALKAAVPLAPFYESNDFSRLTVPTLVVGCQRDTVAAVSQRAIPMYESIPASVSKAYLELAGGDHLCVETGNGNKAIQGKYTVAWMKRFLDDDVRYSPYLCGSPHQADLAGDAVSAYRETCPY
B11: unnamed (protein)
chain: MFDDMNHTTQSKFSRLLQVSLATSALALSLGVQAQQTGADPTTASIEQAGPLAVANVKVATPSGYGSGTVYYPTTGSAYGLVSVTPGFTEGQSAINWLGPLLASHGFVVVTIGTKTILDVPTNRAKQMMAALAQVTALSATKTSPFAGKVDASRLAVMGHSMGGGGSLDAARDNPNLKASIPLAPWETTKDYSKTTVPTLIVSCESDAIAPVKDHANKFYDSFTPTLTKALLEMKGASHFCTNSSANAATKTLIGKYSISWLKRFVDGDTRYSPFLCGAPHQADLAGSLISTYKENCPY
B12: unnamed (protein)
chain: MMKSIIARLAIGTSVLLFSVSAFSFTPGPTPDPDPDPNPNPCEVDCDFSRGPNPTASYLEAASGPYTVRTMRVSSSVTGFGGGTIHYPTGTTGKMGAIAVVPGFLAGESSISWWGPRLASHGFVVITIATNSAFDQPASREAQLGRALDYVIAQSNASGNAISGMVDSSRVGAMGWSMGGGGTLRIASGGRLSAAIPLAPWHTGSNDFNQISTPTMIIACENDGTAPVNSHASPFYNRIPASTDKAYLEINNGGHSCANGGGSNGGLLGKYGVSWMKRFIDKDTRYNQFLCGPNHASNSAISEYRETCNY
B13: unnamed (protein)
chain: MRETSLHRSPAPALAQACTRAASRLRFAALGLAAGLLSLAAQAQINPDQRGPNPTAASLEATAGPYAVKTSKVASQSNFGGGTVYFPDSNEGPFGVIAIAPGFTEGQSVNSWWGNRLASHGFVVITASMKNVLQYPTPRAKELVAALNYVVAQSQTSGSPYFGKVDPARRGVMGHSMGGGGTLEVVRDDPTIKAAIPLAPWDLSKVFTQVTTPTLIVACEKDAIAPVNTHASTFYDSLSASLDKAFLELKGADHFCTNTSTTAARKTVLGKYGVAWMKRFIDSDTRYAPFLCGATHEAYLSASSSVISRYKSSCPY
B14: unnamed (protein)
chain: MKNTAFRKVSVVAVTFLLSVTAFAGGGGGGGGDNSGALPLPDTCNSNCGYELGPNPSLSFVQANRGPQPTTTTNVSSSVDGFGGGTIYYPTNISQEMAAISIAPGFTNTQSAVAWWGPVLASHGFVVITIDTNGRFDQPESRSRQLDAALNHLISESDRSSSPISGLVDRNRLATMGFSMGGGGSLRSASRNRLSAAVPLAPWSVGGNNFNQIGVPTMIMACENDGTAGINQHARPFYNAIPGSTDKVYLEINDGPHNCANGNNINNATLSTYGVSWMKRFLDKDRRFNQFLCGPNHEANSRISQFRDTCLF

These proteins were tested on BHET. Details: 120 h.

| Protein | plate clearing |
| --- | --- |
| B1 | not clears the plate |
| B2 | not clears the plate |
| B3 | not clears the plate |
| B4 | not clears the plate |
| B5 | not clears the plate |
| B6 | not clears the plate |
| B7 | clears the plate (z > 3 vs empty vector) |
| B8 | not clears the plate |
| B9 | not clears the plate |
| B10 | not clears the plate |
| B11 | not clears the plate |
| B12 | not clears the plate |
| B13 | not clears the plate |
| B14 | not clears the plate |
